# Test results reported in the supplement of paper PMC12455559.
# Assay: purified protein yield per well (BCA); higher = higher soluble expression
# In short: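 Candidate enzymes were made in 2 mL autoinduction cultures of E. coli C41(DE3) with 100 µg/mL kanamycin, at 37 °C for 2 h and then 18 °C for 40 h, and purified with Ni-charged magnetic beads and SUMO protease cleavage. The Pierce Rapid Gold BCA kit gave purified protein yield per well. Values lower than 25 ug (0.1 mg/mL) are below the detection threshold.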
row,Sequence,purified protein yield per well
1,QENPFERGPDPTERSIEAPRGPFATATTTVARGGVQGFGGGTIYYPTDTSEGTFGAVAISPGFTESQSAISWYGQRLASQGFVVFTIDTNGIFDFPDQRGDQLLAALDYLTTHSTVADRIDADRLGVLGHSMGGGGSLSAVDERTELQAAIPLAPWHLNQNWSGVDVPTMIIGGETDFIAPVDTHAEPFYQSLPSSLDKAYLEMKGKGHFVTNSPNTVIAKFAISWLKRFIDNDTRYERFLCPAPSPDAEISEYRDTCPH [TEP078],< 25 µg
2,QIGPAPTSASLNATAGPLAVSTSTVTVATGFGGGTIYYPSTAGQYGVIAISPGFTATQSSVAWLGRRLATHGFVVITIDTNTTLDQPASRATQLIAALNYVVNSASSTVRSRVDPNRRAVAGHSMGGGGALIAAENNPSLKASLPLTPWNLSSSFTQVRVPTLIVGSDGDAVAPVAVHARPFYASLPGTTYKAYAELNLATHFTPNSTNTPIGRYGVTWMKRFVDADTRYSSFLCGADHQAYATALVFDRYSQNCPY [ESM116],< 25 µg
3,QIGPDPTSASLNATAGSFAVSTSNVTLARGFGGGTIYYPTTAGRYGVVAISPGFTATQSSIAWLGRRLATHGLVVITMNTNSTLDQPASRATQLMAALNYVVNSASSTVRARVDSTRLAVAGHSMGGGGALIAAEDNPTLKAALPLTPWNLSTSFTQVRVPTLIVGADGDTVASVAAHARPFYASLPASTFKAYAELNGATHFTPNSTNTPIGRYGVTWMKRFVDADTRYSPFLCGAAHTAYATALVFDRYNQNCPY [ESM068],< 25 µg
4,QIGPDPTSSSLNATSGPFAVSTSNVVLARGFGGGTIYYPTTTGRYGVVAISPGFTATESSVAWLGRRLATHGLVVITINTNSTLDQPASRATQLMAALNHVVNSASSTVRSRVDSTRLAVAGHSMGGGGALIAAENNPTLKAALPLTPWNLSSSFTQVQVPTLIVGADGDSVASVAVHARPFYASLPATTFKAYAELNGASHFTPNSTNTPIGRYGTAWMKRFVDADSRYSPFLCGAPHEAYATALVFDRYNQNCPY [DP027],< 25 µg
5,QIGPDPTSSSLNATSGPFAVSTSTVAIASGFGGGTIYYPTTTGQYGVIAVSPGFTATQSSIAWLGRRLATHGFVVITIDTLTTLDQPASRATQLVAALNYVVNSATSTVRSRVDSSKRAVAGHSMGGGGALIAAQNNPGLKASLPLTPWNLSTNFSQNQVPTLIFGSDGDTVAPVAVHSRPFYASLPSSTYKAYAELNLATHFTPNSTNTPIGRYGVAWMKRFIDSDTRYSAFLCGAEHQAYATALVFDRYNQNCPY [ESM113],< 25 µg
6,QNCDSLLLESITNPGPYSVNDIDESAGIRNGSDYSGSTIYYPVNSNGNYASIVLVPGYMNTESTIQNWGPFLASHGIVTMTIGTNSLTDNHIQRKDALLDAIISLKNENNRLASPLYAKLATTTIAVGGFSKGGGGAQLAAVDAPDLKAVVALYPWLDNPSQSDLNHNIPVIIVSGELDLIAPPSSHADVHYDYTPNTTNKLKYEVEFASHDALSGPTGGNGEVGKRVFSWLQTYLLDDSCYCPLMLVPATTSSEYITNIVCDNVTQVSEFSYANKKLIKVIDLLGREAKENKNTPLFYIYDDGTVEKKIIIE [TEP087],< 25 µg
7,QNCGNISLNNITNPGPYGYLTMDQNDGLRDGPDYGNATVYYPTNTTTPFACVSIVPGFFSTQSSVAAWGPFLASHGIVSIIFDTNSLFDSPADRADGLLDALETMRQENTRTASPLFGLIDESRFGVMGWSMGGGGAQLAAVIDPSLKAVIALCPWLNSPNSNTLNHTVPVLILSGELDPTAPPDLHADVHFDLTPNTTDKLLFEVDGGDHSIANDPANAQGDIGKYGLAWLRNYLLDDPCHCPLVLLPSTETSNTMTNVVCPPTLACPIQLTLFNNLIADGTYKAIQTVTSASMVPLSGNVSLKAEQSIFLDCGFSVDSGAAFEAVIQICN [TEP048],< 25 µg
8,QNPFERGPAPTTASLEASRGPFATSSFTVSRPSGYGAGTVYYPTNAGGTVGAIAIVPGYTARQSSINWWGPRLASHGFVVITIDTNSTLDQPSSRSRQQLAALDQVATLARTSSSPIYNKVDTTRMGVMGWSMGGGGSLISAENRPSLKAAAPQAPWNSSTNFSSVTVPTLIFACENDSIAATGSHASPMYNSMSRNPKQYLEINGGSHSCANSGNSNQALIGKKGVAWMKRYMDNDTRYTSFACANPNSTRVSDFRVARCS [ESM086],< 25 µg
9,QNPYERGPAPSTASLEASRGPFATSSFTVSRPSGYGAGTVYYPTNAGGTVGAIAIVPGYTARQSSINWWGPRLASHGFVVITIDTNSTSDQPASRSRQQLAALDQVATLNSTSSSPIYNKVDTSRMGVMGWSMGGGGSLISAQNRSSLKAAAPQAPWNSSTNFSSVTVPTLIFACESDAIARVGSHASPMYNSMTRNPKQFMEIEGGSHSCANSGNSNQALIGKKGVAWMKRFMDNDTRYTSFACSNPNSTRVSDFRVARCS [ESM114],< 25 µg
10,QNPYERGPAPTTSSLEASRGPFSTSSFTVSRPSGYGAGTVYYPTNAGGTVGAIAIVPGFTARQSSINWWGPRLASHGFVVITIDTNSTLDQPASRSRQQLAALDQVATLARTSSSPIYNKVDTTRMGVMGWSMGGGGSLISAQNRPSLKAAAPQAPWNGSTSFGSVTVPTLIFACENDSIAPVGSHASPMYNSMTRNPKEFIEIDGGSHSCANSGNSNQALIGKKGVAWMKRFMDNDTRYTSFACANPNSTRVSDFRVARCS [ESM066],< 25 µg
11,QPIDSLETLSIKEQSTITLPTTLATKIPLTEVPATKIPLTTTTSTSPTSNCIPDSVITAAELSATRDNGPFTVATKSVPRQLANGFGGGTIHYPTNAGDCGLLGGIAVIPGYVSYEASIKWWGPRLASWGFVVITIDTNSIYDDPDSRATQLSAALDHILSDSTVGAQIDSTRLGAIGWSMGGGGALQLATKRSDIRVIIPQTPYHDKDYGNMDTPALFITCQNDRIASNKKYSSPFYNNAAGAKMKIEIKNGSHFCPSYRFNEILLSKPGIAWMHRYINGDTRFDKFLCNNENYGNSPRISAYDYKDCG [TEP174],< 25 µg
12,QQIGPNPTSAQLNATSGPFAVSSSNVLIASGFGGGTIYYPTQSGSYGVIAVCPGFTGTSSSISWFARRLATHGFVTIAMDTNTLLDQPDSRATQLRAALNYLINNSSSTIRSRINPNLRGVAGHSMGGGGTLIASASDSTLKVGIPLTPWNLSSLPFYSIRVPQLVFGADGDTIAPYAVHARPFYNAIPSTTKKAYALLQSASHFTPNTTDERIGRYGVAFAKRWVYNDTRYSTFLTGAEHNAYNNILRFQTYLHNGPY [DP062],< 25 µg
13,QQTGPDPTSASLNATAGPFAVSTATVTSPVGFGGGTIYYPTIAGQYGVVALSPGFTATQSSVAWLGRRIATHGFVVVTINTNSTLDQPASRANQLIAALNYVANSASTTVRSRVDASRRAVGGHSMGGGGSLIAAQNNPSLKAILPLTPWNLSTNFSGVQVPTLIVGADGDAVAPVASHARPFYASLPSTVRKAYGELNMASHSTPTSGVNTPIGRYGVTWMKRFVDGDTRYSTFLCGAEHQAYATATVFDRYSQNCPY [ESM127],< 25 µg
14,QSAGGNPYAIGPDPTASSLEASSGPFGYTSTTIPSSEATGYGGGTVYYPANVNIATGGIVVVPGYGATQSNISWWGPRLASNGFVVYTIDTTNIYDLPAQRAKEIMAAVAQLKTFSTTTGNEIYGKVDTNRIGIMGGSFGGGGTLIAETTHPQLKAAIPFVPKIASGNPDLSKITIPTLIIGCQEDQVAPPKSYAIPYYSAIPEQNHKAYLEISNGQHLCASTQGSDQNKPIIGKYGVAWMKRFIDNDSRYNPYLCGSPHQTDVSNSTVISGYKDTCPY [DP020],< 25 µg
15,QSNPYARGPDPTTAALEASRGPFAFSSFSVTRPSGYGAGTVYYPTNAGGTVGAIAIVPGFFARQSSINWWGPRLASHGFVVITIDTNSTFDQPASRASQQMAALRQVATLAGTSSSPIYRKVDTARLGVMGWSMGGGGTLLAARDNPSLKAAAPQAPWNSSTTNFSSMTVPTLIIACESDSTAPTRSHAEPFYTSMSRNSKQYLEINNGSHSCANGGSNTGLLGKKGVAWMKRFMDEDRRYTSFACSNPNSSAVSDFRTANCS [ESM149],< 25 µg
16,QSNPYQKGPDPTHASIEADGPYAVSTQALKGSGFGSGTVYSPNAAGSYALVAVCPGFVSAQSSIAQISRRLATHGFVVVTIDTNTIFDFPDSRSTQLLAALKAVAALSTGPAAGKIDTARQAVAGWSMGGGGTLLAAGSTPALKGAVAYAPWALNNNLKASKVPAAILGGTADIVAPPGIFADVFYKAIPAGSSKLLGIVKGADHFFSNTASQPASYTTVAWFKRFVDNDTRYGPFLNGDTRYSRFSYTGPF [TEP040],< 25 µg
